T1: BRAVO-mVenus (BRASSINOSTEROIDS AT VASCULAR AND ORGANIZING CENTRE) (Arabidopsis thaliana, UniProt Q6R053 1-323)
T1 construct: BRAVO, R2R3-MYB transcription factor of Arabidopsis thaliana; the CDS amplified from cDNA; FRET donor; source: N. benthamiana abaxial epidermal leaf cells, transiently expressed (β-estradiol inducible promoter), in cells
T1 sequence (looked up): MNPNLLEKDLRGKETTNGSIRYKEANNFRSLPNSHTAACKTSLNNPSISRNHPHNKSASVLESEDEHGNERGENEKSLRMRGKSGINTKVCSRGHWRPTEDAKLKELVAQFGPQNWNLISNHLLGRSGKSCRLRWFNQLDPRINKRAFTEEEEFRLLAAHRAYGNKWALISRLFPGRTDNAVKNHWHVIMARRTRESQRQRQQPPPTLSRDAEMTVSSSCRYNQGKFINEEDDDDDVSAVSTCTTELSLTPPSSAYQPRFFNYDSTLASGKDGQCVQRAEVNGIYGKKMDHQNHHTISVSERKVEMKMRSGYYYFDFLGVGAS

T2: BRAVO-mV(N) PLT3-mV(C) heterodimer (BiFC donor) (Arabidopsis thaliana, UniProt Q6R053 1-323; Q52QU2 1-581)
T2 construct: BRAVO, R2R3-MYB transcription factor of Arabidopsis thaliana; the CDS amplified from cDNA; PLETHORA 3 (PLT3) of Arabidopsis thaliana; the CDS, described in Burkart et al, 2022; The two halves of mVenus are reconstituted in the heterodimer, which serves as FRET donor; source: N. benthamiana abaxial epidermal leaf cells, transiently co-expressed, in cells
T2 sequence (looked up) 1: T1 sequence (looked up)
T2 sequence (looked up) 2: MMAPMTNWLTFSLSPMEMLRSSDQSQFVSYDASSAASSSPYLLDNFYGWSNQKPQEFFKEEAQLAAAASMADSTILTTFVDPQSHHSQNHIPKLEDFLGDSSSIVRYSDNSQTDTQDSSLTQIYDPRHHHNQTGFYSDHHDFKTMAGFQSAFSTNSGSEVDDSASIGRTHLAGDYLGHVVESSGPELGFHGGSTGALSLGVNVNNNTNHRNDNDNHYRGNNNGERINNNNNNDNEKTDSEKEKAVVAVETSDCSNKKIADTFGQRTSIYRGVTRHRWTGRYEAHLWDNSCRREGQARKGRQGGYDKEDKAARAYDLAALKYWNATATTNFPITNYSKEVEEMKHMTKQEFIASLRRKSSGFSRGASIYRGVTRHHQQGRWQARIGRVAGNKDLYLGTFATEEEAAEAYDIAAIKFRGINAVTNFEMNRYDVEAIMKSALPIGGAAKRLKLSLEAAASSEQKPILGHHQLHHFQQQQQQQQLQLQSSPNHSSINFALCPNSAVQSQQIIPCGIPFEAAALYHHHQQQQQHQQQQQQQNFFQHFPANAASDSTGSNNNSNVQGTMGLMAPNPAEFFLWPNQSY

T3: WOX5-mV(N) PLT3-mV(C) heterodimer (BiFC donor) (Arabidopsis thaliana, UniProt Q8H1D2 1-182; Q52QU2 1-581)
T3 construct: WUSCHEL-RELATED HOMEOBOX 5 (WOX5) of Arabidopsis thaliana; the CDS, described in Burkart et al, 2022; PLETHORA 3 (PLT3) of Arabidopsis thaliana; The two halves of mVenus are reconstituted in the heterodimer, which serves as FRET donor; also called heterodimer of WOX5 and PLT3; source: N. benthamiana abaxial epidermal leaf cells, transiently co-expressed, in cells
T3 sequence (looked up) 1: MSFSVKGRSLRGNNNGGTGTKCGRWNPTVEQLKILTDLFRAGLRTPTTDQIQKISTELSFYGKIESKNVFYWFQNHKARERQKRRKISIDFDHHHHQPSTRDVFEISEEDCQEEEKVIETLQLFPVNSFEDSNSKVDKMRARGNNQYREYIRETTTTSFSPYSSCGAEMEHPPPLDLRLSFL
T3 sequence (looked up) 2: T2 sequence (looked up) 2

B1: WOX5-mCherry (WUSCHEL-RELATED HOMEOBOX 5) (natural protein, Arabidopsis thaliana, UniProt Q8H1D2 1-182, looked up)
chain: T3 sequence (looked up) 1
notes: WUSCHEL-RELATED HOMEOBOX 5 (WOX5), homeodomain transcription factor of Arabidopsis thaliana; the CDS, described in Burkart et al, 2022; FRET acceptor; construct XVE:WOX5-mCherry of Burkart et al, 2022; source: N. benthamiana abaxial epidermal leaf cells, transiently expressed (β-estradiol inducible), in cells
B2: TPL-mCherry (TOPLESS) (natural protein, Arabidopsis thaliana, UniProt Q94AI7 1-1131, looked up)
chain: MSSLSRELVFLILQFLDEEKFKETVHKLEQESGFFFNMKYFEDEVHNGNWDEVEKYLSGFTKVDDNRYSMKIFFEIRKQKYLEALDKHDRPKAVDILVKDLKVFSTFNEELFKEITQLLTLENFRENEQLSKYGDTKSARAIMLVELKKLIEANPLFRDKLQFPTLRNSRLRTLINQSLNWQHQLCKNPRPNPDIKTLFVDHSCGPPNGARAPSPVNNPLLGGIPKAGGFPPLGAHGPFQPTASPVPTPLAGWMSSPSSVPHPAVSAGAIALGGPSIPAALKHPRTPPTNASLDYPSADSEHVSKRTRPMGISDEVNLGVNMLPMSFSGQAHGHSPAFKAPDDLPKTVARTLSQGSSPMSMDFHPIKQTLLLVGTNVGDIGLWEVGSRERLVQKTFKVWDLSKCSMPLQAALVKEPVVSVNRVIWSPDGSLFGVAYSRHIVQLYSYHGGEDMRQHLEIDAHVGGVNDISFSTPNKQLCVITCGDDKTIKVWDAATGVKRHTFEGHEAPVYSVCPHYKENIQFIFSTALDGKIKAWLYDNMGSRVDYDAPGRWCTTMAYSADGTRLFSCGTSKDGESFIVEWNESEGAVKRTYQGFHKRSLGVVQFDTTKNRYLAAGDDFSIKFWDMDAVQLLTAIDGDGGLQASPRIRFNKEGSLLAVSGNENVIKIMANSDGLRLLHTFENISSESSKPAINSIAAAAAAAATSAGHADRSANVVSIQGMNGDSRNMVDVKPVITEESNDKSKIWKLTEVSEPSQCRSLRLPENLRVAKISRLIFTNSGNAILALASNAIHLLWKWQRNERNATGKATASLPPQQWQPASGILMTNDVAETNPEEAVPCFALSKNDSYVMSASGGKISLFNMMTFKTMATFMPPPPAATFLAFHPQDNNIIAIGMDDSTIQIYNVRVDEVKSKLKGHSKRITGLAFSNVLNVLVSSGADAQLCVWNTDGWEKQRSKVLPLPQGRPNSAPSDTRVQFHQDQAHFLVVHETQLAIYETTKLECMKQWAVRESLAPITHATFSCDSQLVYASFMDATVCVFSSANLRLRCRVNPSAYLPASLSNSNVHPLVIAAHPQEPNMFAVGLSDGGVHIFEPLESEGKWGVAPPAENGSASGAPTAPSVGASASDQPQR
notes: TOPLESS (TPL) of Arabidopsis thaliana; the CDS amplified from cDNA; FRET acceptor; source: N. benthamiana abaxial epidermal leaf cells, transiently expressed (β-estradiol inducible), in cells
B3: BRAVO-mCherry (natural protein, Arabidopsis thaliana, UniProt Q6R053 1-323, looked up)
chain: T1 sequence (looked up)
notes: BRAVO, R2R3-MYB transcription factor of Arabidopsis thaliana; the CDS amplified from cDNA; FRET acceptor; source: N. benthamiana abaxial epidermal leaf cells, transiently expressed (β-estradiol inducible), in cells

Key:
[1] = target: WOX5-mV(N) PLT3-mV(C) heterodimer (BiFC donor) (Arabidopsis thaliana) (UniProt Q8H1D2); experiment: split reporter (BiFC, NanoBiT) + FRET or BRET; BiFC-FRET-FLIM in nuclei of N. benthamiana epidermal leaf cells; mVenus donor split into mV(N) and mV(C) on two proteins, third protein with mCherry as acceptor; 'binding' [%]; binding cutoff 10%
[2] = target: BRAVO-mVenus (BRASSINOSTEROIDS AT VASCULAR AND ORGANIZING CENTRE) (Arabidopsis thaliana) (UniProt Q6R053); experiment: FRET or BRET; FRET-FLIM in nuclei of transiently expressing N. benthamiana epidermal leaf cells; mVenus fusion as donor, mCherry fusion as acceptor; 'binding' [%] is the amplitude of the FRET component (number of donor molecules undergoing FRET); binding cutoff 10%; a binding not significantly different from the negative control (mCherry-NLS) is regarded as no interaction
[3] = target: T1, BRAVO-mVenus (BRASSINOSTEROIDS AT …); experiment: as above; conditions: partners not purified
[4] = target: T2, BRAVO-mV(N) PLT3-mV(C) heterodimer …; experiment: split reporter (BiFC, NanoBiT) + FRET or BRET; BiFC-FRET-FLIM in nuclei of N. benthamiana epidermal leaf cells; mVenus donor split into mV(N) and mV(C) on two proteins, third protein with mCherry as acceptor; 'binding' [%]; binding cutoff 10%; conditions: partners not purified
[5] = target: T3, WOX5-mV(N) PLT3-mV(C) heterodimer (BiFC …); experiment: as above; conditions: partners not purified

Molecule | binding (FRET-FLIM, share of donor molecules undergoing FRET) [1] | binding (FRET-FLIM, share of donor molecules undergoing FRET) [2] | binding (FRET-FLIM, share of donor molecules undergoing FRET) [3] | binding (FRET-FLIM, share of donor molecules undergoing FRET) [4] | binding (FRET-FLIM, share of donor molecules undergoing FRET) [5]
BES1D-mCherry (BRI1-EMS-SUPPRESSOR 1, BES1D form) (from UniProt Q9LN63 1-335) (natural protein) | 18.7% | 27.4% |  |  | 
B1 |  |  | 22.4 ± 14.1% | 29.8 ± 10.6% | 
B2 |  |  | 26.7 ± 9.8% | 21.1 ± 8.3% | 23.3 ± 8.3%
B3 |  |  |  |  | 36.3 ± 10.7%

Reference: paper PMC12069552, “Root stem cell homeostasis in Arabidopsis involves cell-type specific transcription factor complexes” (EMBO Reports, 2025)
